# Test results taken from PMC9172573, “Covalent labeling of a chromatin reader domain using proximity-reactive cyclic peptides†” (Chemical Science, 2022).
# Square brackets hold non-standard residues; d marks the D form. Ends that are not written are not given here. Peptide text beside a SMILES is read from it. Lys(Me3) = C[N+](C)(C)CCCC[C@H](N)C(=O)O; fluorescent label = not defined here; Arg(Me) = CNC(=N)NCCC[C@H](N)C(=O)O; Aib = CC(C)(N)C(=O)O; Me3 = trimethyl
# T1: His6-MBP-PHD3 (PHD3 domain of histone demethylase KDM5A) (UniProt P29375 1609-1659)
# T1 chain: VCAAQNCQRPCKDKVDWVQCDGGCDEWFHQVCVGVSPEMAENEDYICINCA
# T2: His6-MBP-PHD3 (PHD3 domain of histone demethylase KDM5A) (UniProt P29375 1609-1659)
# T2 construct: KDM5A, third (C-terminal) PHD finger, PHD3; holds K1620, K1622, W1625, W1635; also called recombinant His6-MBP-PHD3 protein; KDM5A-PHD3; source: recombinant; not shown: His6, N-terminal, kept; MBP, N-terminal, kept
# T2 sequence: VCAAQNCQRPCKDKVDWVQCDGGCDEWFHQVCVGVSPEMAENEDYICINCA
# T3: PHD3 K1622A (UniProt P29375 1609-1659, K1622A)
# T3 sequence: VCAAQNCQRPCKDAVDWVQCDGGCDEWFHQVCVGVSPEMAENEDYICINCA
# T4: PHD3 K1620A (UniProt P29375 1609-1659, K1620A)
# T4 sequence: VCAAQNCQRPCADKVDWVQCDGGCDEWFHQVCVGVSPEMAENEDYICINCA
# T5: PHD3 double mutant K1620A/K1622A (UniProt P29375 1609-1659, K1620A | K1622A)
# T5 sequence: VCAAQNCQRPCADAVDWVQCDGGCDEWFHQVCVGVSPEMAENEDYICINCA
# Columns and labels:
# [1] = biological target: His6-MBP-PHD3 (PHD3 domain of histone demethylase KDM5A) (UniProt P29375); assay: fluorescence polarisation; competition: recombinant His6-MBP-PHD3 incubated with the 10mer H3K4me3 tracer (C-terminal fluorescent label), then varying concentrations of the competing peptide; Ki
# [2] = biological target: recombinant His6-MBP-PHD3 (PHD3 domain of KDM5A) (Homo sapiens, UniProt P29375)
# [3] = oxyguanidino / guanidino side-chain group; cited from earlier work
# trypsin = trypsin stability assay; format: in vitro ADME; conditions: peptide and trypsin 1:1 w/w, 1x PBS, RT, HPLC
# Protocol: Trypsin stability assay: Peptide and trypsin (1:1 w/w) were mixed in 1x PBS buffer and the resulting mixture was incubated at RT. Proteolysis reactions at a given time point was quenched by adding HCl. The proteolysis process was monitored by subjecting the quenched mixture onto r everse-phase HPLC column monitoring at 2 14 nm [H2O (A):MeCN (B); 5% to 100% solvent B over 23 min].
# Fig. S2a: Chromatograms of WT H3K4me3 hexapeptide ( 1) before and after incubation with trypsin ( t = < 5 min).
# (1 picture or pasted object on this page, not shown here)
# [4] = biological target: His6-MBP-PHD3 (PHD3 domain of histone demethylase KDM5A) (UniProt P29375); assay: FP
# [5] = biological target: T1, His6-MBP-PHD3 (PHD3 domain of histone …); assay: FP
# [6] = biological target: T1, His6-MBP-PHD3 (PHD3 domain of histone …); assay: FP
# [7] = biological target: T2, His6-MBP-PHD3 (PHD3 domain of histone …); assay: fluorescence polarisation; competition: recombinant His6-MBP-PHD3 incubated with the 10mer H3K4me3 tracer (C-terminal fluorescent label), then varying concentrations of the competing peptide; Ki; conditions: both partners purified
# [8] = biological target: T1, His6-MBP-PHD3 (PHD3 domain of histone …); assay: FP
# PHD3 K1622A = biological target: T3, PHD3 K1622A; assay: FP
# PHD3 K1620A = biological target: T4, PHD3 K1620A; assay: FP
# [9] = biological target: T5, PHD3 double mutant K1620A/K1622A; assay: FP
molecule,measurement,setting,value
H3K4me3 6mer peptide 8 (R2 replaced with canavanine) (from UniProt P68431 2-7),Ki,[1],2300 nM
C[C@H](N)C(=O)N[C@@H](CCCNC(=N)N)C(=O)N[C@H](C(=O)N[C@@H](CCCC[N+](C)(C)C)C(=O)N[C@@H](CCC(N)=O)C(=O)N[C@@H](C)C(=O)N[C@@H](C)C(=O)N[C@@H](CCCNC(=N)N)C(=O)N[C@@H](CCCCN)C(=O)N[C@@H](CO)C(N)=O)[C@@H](C)O [T6A],Ki,[2],150 ± 47 nM
H3K4me3 6mer peptide 9 (R2 replaced with homo-arginine) (from UniProt P68431 2-7),Ki,[1],740 nM
N=C(N)NCCC[C@H](N)C(=O)O [arginine],pKa,[3],~12.48
N=C(N)NOCC[C@H](N)C(=O)O [canavanine],pKa,[3],7.01
C[C@@H](O)[C@H](NC(=O)[C@H](CCC(N)=O)NC(=O)[C@H](CCCC[N+](C)(C)C)NC(=O)[C@@H](NC(=O)[C@H](CCCNC(=N)N)NC(=O)[C@@H](N)CO)[C@@H](C)O)C(N)=O [compound 5] (H-SRT[Lys(Me3)]QT-NH2),Ki,[2],1700 ± 300 nM
"C[C@H](N)C(=O)N[C@@H](CCCNC(=N)N)C(=O)N[C@H](C(=O)N[C@@H](CCCC[N+](C)(C)C)C(=O)N[C@@H](CCC(N)=O)C(=O)N[C@H](C(N)=O)[C@@H](C)O)[C@@H](C)O [compound 1, ARTK(me3)QT] (H-ART[Lys(Me3)]QT-NH2)",tryptic stability,trypsin,highly susceptible to tryptic digestion
H3K4me3 6mer peptide 4 (A1 sidechain modified) (from UniProt P68431 2-7),Ki,[4],12000 nM
C[C@@H](O)[C@H](NC(=O)[C@H](CCC(N)=O)NC(=O)[C@H](CCCC[N+](C)(C)C)NC(=O)[C@@H](NC(=O)[C@H](CCCNC(=N)N)NC(=O)[C@@H]1CCCN1)[C@@H](C)O)C(N)=O [compound 6] (H-PRT[Lys(Me3)]QT-NH2),Ki,[2],2700 ± 640 nM
NC(N)=NCCCC[C@H](N)C(=O)O [homo-arginine],pKa,[3],~12.48
H3 6mer peptide 14 (K4me3 replaced with homo-arginine) (from UniProt P68431 2-7),Ki,[1],690 nM
"ARTAQTARKS [H3 10mer peptide, K4 replaced with Ala]",Ki,[5],30000 nM
Ac-ART[Lys(Me3)]QT [N-terminally acetylated H3K4me3 6mer peptide (2)],Ki,[6],76000 nM
A[Arg(Me)]T[Lys(Me3)]QT [H3K4me3 6mer peptide 10 (R2 guanidino group monomethylated)],Ki,[6],220 nM
ARTK(Me3)QT [hexapeptide ARTK(me3)QT (1)],Ki,[7],130 nM
"ARTKQC (peptide, UniProt P68431 2-7, looked up, not fully specified; Cys at 6; ε-amino group of dimethyllysine 4 stapled to the Cys6 sulfur with 1,2-bis(bromomethyl)benzene, thioether oxidised to the sulfone, Full-length, cleaved form of intermediate C-20; also called series C; source: synthetic peptide, Fmoc-SPPS on Rink amide resin) [sulfone cyclopeptide C-20c]","fold decrease in binding affinity (against the thioether C-18c, as read)",[7],5 fold
ARV[Lys(Me3)]QT [H3K4me3 6mer peptide 13 (T3V)],Ki,[6],240 nM
ART[Lys(Me3)]YT [H3K4me3 6mer peptide 15 (Q5 replaced with tyrosine)],Ki,[6],440 nM
ART[Lys(Me3)]QTARKA [S10A],Ki,[5],12 nM
ART[Lys(Me3)]QTAAKS [R8A],Ki,[5],69 nM
"ARA[Lys(Me3)]QTARKS [H3K4me3 10mer peptide, T3 replaced with Ala]",Ki,[5],650 nM
ART[Lys(Me3)]QTARK (not fully specified) [9mer],Ki,[5],15 nM
ART[Lys(Me3)]QTARKS-{fluorescent label} (reading uncertain) [10mer H3K4me3 tracer containing a C-terminal fluorescent label],Kd,[8],83 nM
same,Kd,PHD3 K1622A,160 nM
same,Kd,PHD3 K1620A,58 nM
same,Kd,[9],71 nM
ART[Lys(Me3)]ATARKS [H3K4me3 10mer peptide Q5A],Ki,[5],59 nM
Me-ART[Lys(Me3)]QT [N-terminally methylated H3K4me3 6mer peptide (3)],Ki,[6],150 nM
ART[Lys(Me3)]QTA (not fully specified) [7mer],Ki,[5],43 nM
ART[Lys(Me3)]QTAR (not fully specified) [8mer],Ki,[5],54 nM
"AAT[Lys(Me3)]QTARKS [H3K4me3 10mer peptide, R2 replaced with Ala]",Ki,[5],560 nM
[Aib]RT[Lys(Me3)]QT [2-aminoisobutyric acid-containing peptide 7],Ki,[6],310 nM
ART[Lys(Me3)]QTARAS [K9A],Ki,[5],28 nM
ART[Lys(Me3)] (not fully specified) [4mer],Ki,[5],2700 nM
